B1: ch1719 (antibody, human IgG4 S228P, kappa, V domains shown)
VH: QVQLKESGPGLVAPSQSLSITCTVSGFSLISYGVSWVRQPPGKGLEWLGVIWGDGNTNYHSVLISRLSIRKDDSKSQVFLKLNSLQTDDTATYYCAKNNYYGSRYGYPMDYWGQGTSVTVSS
VL: DIVMTQSHKFMSTSVGDRVSITCKATQDVGTAVAWYQQKPGHSPKLLIYWASTRHTGVPERFTGSGSGTDFTLTIDNVQSEDLADYFCQQYGSSVLTFGAGTKVELRR
notes: also called chimeric antibody corresponding to m1719
B2: ch1721 (antibody, human IgG4 S228P, kappa, V domains shown)
VH: QVQLKESGPGLVAPSQSLSITCTVSGFSLISYGVNWVRQPPGKGLEWLGVIWGDGSTNYHSALISRLSISKDDSKSQVFLNLNSLQTDDTATYYCAKNYFYGSRYGYAMDSWGQGISVTVSS
VL: DIQMTQSPASLSAAVGETVTITCRASENIYSSLAWYQQKQGKSPQLLVYNAKTLIETVASRFSGSGSGTQYSLKINSLQPEDFGSFYCQHHYGTPYTFGGGTKLEIKR
notes: also called chimeric antibody corresponding to m1721
B3: h1719-010 (antibody, V domains shown)
VH: EVTLKESGPVLVKPTETLTLTCTVSGFSLSSYGVSWVRQPPGKGLEWLGVIWGDGNTNYHSVLISRLTISKDTSKSQVVLTLTNMDPVDTATYYCAKQNYYGSRYGYPIDYWGQGTTVTVSS
VL: DIQMTQSPSSVSASVGDRVTITCKATQDVGTAVAWYQQKPGKAPKLLIYWASTRHTGVPSRFSGSGSGTDFTLTISSLQPEDFATYYCQQYGSSVLTFGGGTKVEIK
notes: Only variable regions are tied to this name
B4: h1719-014 (antibody, V domains shown)
VH: EVTLKESGPVLVKPTETLTLTCTVSGFSLSSYGVSWVRQPPGKGLEWLGVIWGDGNTNYHSVLISRLTISKDTSKSQVVLTLTNMDPVDTATYYCAKNYYYGSRYGYPLDYWGQGTTVTVSS
VL: DIQMTQSPSSVSASVGDRVTITCKATQDVGTAVAWYQQKPGKSPKLLIYWASTRHTGVPERFSGSGSGTDFTLTISSLQPEDFATYFCQQYGSSVLTFGGGTKVEIK
notes: Only variable regions are tied to this name; also called M719-014
B5: h1722-010 (antibody, V domains shown)
VH: EVQLVQSGAEVKKPGSSVKVSCKASGGTFSDYWMHWVRQAPGQGLEWIGMLHPNSGTTSFNEKFKIRVTITADKSTSTAYMELSSLRSEDTAVYYCASDYSGPFAYWGQGTLVTVSS
VL: DIQLTQSPSSLSASVGDRVTITCSASSSVNYIHWYQQKPGKAPKRWIFDTSKLASGVPSRFSGSGSGTDYTLTISSLQPEDFATYYCQQWRSNPLTFGQGTKLEIK
notes: Only variable regions are tied to this name; also called M722-010
B6: ch1720 (antibody, human IgG4 S228P, kappa, V domains shown)
VH: EFQLQQSGPELVKPGASVKISCKASAYSLTDYNMNWVKQSNGKSLEWIGVINPSYGISSYNQKFKGKATLTVDQSSSTAYMHLNSLTSEDSAVYYCARQLRLPGYFDVWGTGTTVTVSS
VL: DIKMTQSPSSKNASLGERVTITCKASQDINSYLNWFQQKPGKSPKTLIYRASRLVDGVPSRFSGSGSGQDYSLTISSLEYEDMGIYYCLKYDEFPYTFGGGTKLEIKR
notes: also called chimeric antibody corresponding to m1720
B7: h1721-003 (antibody, V domains shown)
VH: EVTLKESGPVLVKPTETLTLTCTVSGFSLSSYGVNWIRQPPGKALEWLGVIWGDGSTNYHSALISRLTISKDTSKSQVVLTLTNMDPVDTATYYCAKNYFYGSRYGYAMDSWGQGTTVTVSS
VL: DIQMTQSPSSLSASVGDRVTITCRASENIYSSLAWYQQKPGKAPKLLIYNAKTLIEGVPSRFSGSGSGTDFTLTISSLQPEDFATYYCQHHYGTPYTFGGGTKVEIK
notes: Only variable regions are tied to this name; also called M721-003
B8: h1718-012 (antibody, V domains shown)
VH: EVQLVQSGAEVKKPGASVKVSCKASGYTITDYNMNWVRQAPGQRLEWIGVINPSYGITDYNQNFKDRVTITVDTSASTAYMELSSLRSEDTAVYYCAIQLRLPGYFDVWGQGTTVTVSS
VL: DIQMTQSPSSLSASVGDRVTITCKASQDINQYLNWFQQKPGKAPKTLIYRANRLVDGVPSRFSGSGSGQDYTLTISSLQPEDFATYYCLKYDEFPYTFGGGTKVEIK
notes: as for B3

Key:
[1] = molecular target: T1, CD96 epitope peptide #4 (62-81) (human); assay: peptide ELISA ('-' indicates no binding, table note)
T1 peptide: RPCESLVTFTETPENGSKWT
Method: (§1) The epitopes recognized by anti-CD96 antibody were detected by the assay of binding the antibody to different polypeptide fragments of CD96 protein. The fragments of different polypeptides of the CD96 antigen were coated on the microtiter plate. The signal density after the antibody was added was used to judge the binding activity of the antibody and the polypeptide. The specific experimental method is as follows:
(§2) The polypeptides were diluted to a concentration of 20 μg/ml with PBS buffer (Shanghai Yuanpei Biotechnology Co., Ltd. Cat No. B320), pH 7.4, added to a 96-well microtiter plate (Corning, Cat No. CLS3590-100EA) at a volume of 50 μl/well, and coated at 4° C. overnight. After discarding the liquid, 250 μl/well of 5% skim milk (BD skim milk, Cat No. 232100) blocking solution diluted with PBS was added, and the plate was incubated in an incubator at 37° C. for 3 hours. After blocking, the blocking solution was discarded, and the plate was washed 5 times with PBST buffer (pH 7.4 PBS containing 0.05% tween-20). 50 μl/well of different concentrations of the antibodies to be tested (hybridoma purification antibody or humanized antibody) diluted with sample dilution was added, and the plate was incubated in an incubator at 37° C. for 2 hours. […] After washing the plate 5 times with PBST, 50 μl/well of TMB chromogenic substrate (KPL, Cat No. 52-00-03) was added, the plate was incubated at room temperature for 5-15 min, followed by adding 50 μl/well of 1M H₂SO₄ to stop the reaction. The absorption value was read at 450 nm with a microplate reader (Thermo Scientific MuLtiskan MK3), and the epitopes that CD96 antibody can recognize were analyzed.

[2] = molecular target: T2, CD96 epitope peptide #9 (137-156) (human); assay: as above
T2 peptide: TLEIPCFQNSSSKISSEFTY
Method: as §1, §2

[3] = molecular target: T3, CD96 epitope peptide #10 (149-170) (human); assay: as above
T3 peptide: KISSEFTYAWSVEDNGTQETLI
Method: as §1, §2

[4] = molecular target: T4, CD96 epitope peptide #18 (265-284) (human); assay: as above
T4 peptide: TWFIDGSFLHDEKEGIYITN
Method: as §1, §2

[5] = molecular target: T5, CD96 epitope peptide #19 (280-299) (human); assay: as above
T5 peptide: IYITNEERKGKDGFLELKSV
Method: as §1, §2

[6] = molecular target: T6, CD96 epitope peptide #21 (310-329) (human); assay: as above
T6 peptide: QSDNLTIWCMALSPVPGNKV
Method: as §1, §2

[7] = molecular target: T7, Biotinylated CD96 antigen (human, UniProt P40200-2 22-503, limits assumed, biotinylated); assay: competition ELISA: antibody B pre-incubated with biotinylated CD96 antigen, added to a plate coated with antibody A, HRP-streptavidin, OD450; competitor: coated h1721-003
T7 sequence (looked up): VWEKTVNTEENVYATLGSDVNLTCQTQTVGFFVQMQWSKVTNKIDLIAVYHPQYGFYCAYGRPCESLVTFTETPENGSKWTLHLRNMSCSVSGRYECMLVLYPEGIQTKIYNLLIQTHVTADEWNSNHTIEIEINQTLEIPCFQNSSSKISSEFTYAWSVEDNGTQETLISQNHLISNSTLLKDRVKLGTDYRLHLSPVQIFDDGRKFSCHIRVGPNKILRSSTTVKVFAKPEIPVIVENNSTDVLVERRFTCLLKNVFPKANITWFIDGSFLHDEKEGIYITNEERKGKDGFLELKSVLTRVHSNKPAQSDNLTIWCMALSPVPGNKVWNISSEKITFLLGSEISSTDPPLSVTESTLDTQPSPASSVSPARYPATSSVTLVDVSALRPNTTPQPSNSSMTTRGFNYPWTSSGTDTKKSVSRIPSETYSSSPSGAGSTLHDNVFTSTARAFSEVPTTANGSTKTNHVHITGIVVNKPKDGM
Method: (§3) Competitive assays of different antibodies binding to CD96 protein were used to classify binding epitopes of the antibodies. The specific experimental methods are as follows:
(§4) Antibody A was diluted to a concentration of 2 μg/ml with PBS buffer (Shanghai Yuanpei Biotechnology Co., Ltd. Cat No. B320), pH 7.4, added to a 96-well microtiter plate (Corning, Cat No. CLS3590-100EA) at a volume of 50 μl/well, and coated at 4° C. overnight. After discarding the liquid, 250 μl/well of 5% skim milk (BD skim milk, Cat No. 232100) blocking solution diluted with PBS was added, and the plate was incubated at 37° C. for 3 hours. After blocking, the blocking solution was discarded, and the plate was washed 5 times with PBST buffer (pH 7.4 PBS containing 0.05% tween-20) and stored for later use. Antibody B was diluted to 40 μg/ml and 8 μg/ml with 1% BSA, and Biotinylated CD96 antigen was simultaneously diluted to 4 μg/mL. Subsequently, antibody B and antigen were mixed in a 1:1 volume ratio, pre-incubated at 37° C. for 45 minutes, added into the enzyme plate coated with antibody A, thus incubating the plate in an incubator at 37° C. for 1.5 hours. After incubation, the plate was washed for 5 times with PBST, and 50 μl/well of HRP-labeled streptavidin (Sigma, Cat No. 52438) diluted with sample dilution was added, followed by incubating the plate at 37° C. for 1 hour. After washing the plate 5 times with PBST, 50 μl/well of TMB chromogenic substrate (KPL, Cat No. 52-00-03) was added for color development, followed by adding 50 μl/well of 1M H₂SO₄ to stop the reaction. The absorption value was read at 450 nm with a NOVOStar microplate reader, and the OD value was used to determine whether A and B CD96 antibodies compete with each other. Antibodies that compete with each other fall into the same class of antibodies, otherwise belong to different classes of antibodies (see FIG. 3 and Table 18).

[8] = molecular target: T7, Biotinylated CD96 antigen; assay: competition ELISA, antibody B premixed with biotinylated CD96; competitor (coated antibody A): ch1720
Method: as §3, §4

[9] = molecular target: T7, Biotinylated CD96 antigen; assay: competition ELISA, antibody B premixed with biotinylated CD96; competitor (coated antibody A): h1721-003
Method: as §3, §4

[10] = molecular target: T7, Biotinylated CD96 antigen; assay: competition ELISA, antibody B premixed with biotinylated CD96; competitor (coated antibody A): h1722-010
Method: as §3, §4

Row | Binder | binding result [1] | binding result [2] | binding result [3] | binding result [4] | binding result [5] | binding result [6] | IC50 (read off the curve) [7] [nM] | competition (percent) [8] [%] | competition (percent) [9] [%] | competition (percent) [10] [%]
1 | B1 | no binding | no binding | no binding | no binding | no binding | no binding |  |  |  | 
2 | B2 | no binding | no binding | no binding | no binding | no binding | no binding |  |  |  | 
3 | B3 |  |  |  |  |  |  | ~0.4 |  |  | 
4 | B4 |  |  |  |  |  |  |  | 67.7 | 84.6 | 28.6
5 | B5 |  |  |  |  |  |  |  | -11.5 | -8.5 | 100
6 | B6 | no binding | no binding | no binding | no binding | no binding | no binding |  | 100 | 98.7 | -2.4
7 | B7 |  |  |  |  |  |  | ~0.4 | 92.6 | 100 | -0.3
8 | B8 |  |  |  |  |  |  | ~0.4 | 103 | 103 | -11.1

From patent US20200347130A1 (JIANGSU HENGRUI MEDICINE, published 2020)
